Test results as given in patent publication US20040186053A1.
Each block holds one molecule with its values, some of them ahead of it.

Legend:
[1] = target: factor Xa (UniProt P00742); experiment: cell-based or functional assay
[2] = target: factor Xa (UniProt P00742); experiment: cell-based or functional assay; remark: listed apart in the source

t1/2 of inhibition of factor Xa by antithrombin III with PZ, cephalin and Ca++ ions (bioassay) [1]: 35 min
Molecule: antithrombin III (from UniProt P01008 33-464)

inhibition of the chromogenic activity of the factor Xa preparations [1]: > 99%
Molecule: tissue factor pathway inhibitor (TFPI) (from UniProt P10646 29-304)

Apparent Inhibition (%) of factor Xa, one-stage coagulation assay; incubation factor Xa 120 sec, PZT 120 sec [1]: 0%
Molecule: thrombin-cleaved PZ (PZT) (from UniProt P22891 84-400)

Apparent Inhibition (%) of factor Xa, one-stage coagulation assay; incubation factor Xa 15 sec, PZ 120 sec [1]: 70% | Apparent Inhibition (%) of factor Xa, one-stage coagulation assay; incubation factor Xa 30 sec, PZ 120 sec [1]: 71% | Apparent Inhibition (%) of factor Xa, one-stage coagulation assay; incubation factor Xa 60 sec, PZ 120 sec [1]: 73% | Apparent Inhibition (%) of factor Xa, one-stage coagulation assay; incubation factor Xa 90 sec, PZ 120 sec [1]: 76% | Apparent Inhibition (%) of factor Xa, one-stage coagulation assay; incubation factor Xa 120 sec, PZ 0 sec [1]: 0% | Apparent Inhibition (%) of factor Xa, one-stage coagulation assay; incubation factor Xa 120 sec, PZ 15 sec [1]: 50% | Apparent Inhibition (%) of factor Xa, one-stage coagulation assay; incubation factor Xa 120 sec, PZ 30 sec [1]: 61% | Apparent Inhibition (%) of factor Xa, one-stage coagulation assay; incubation factor Xa 120 sec, PZ 60 sec [1]: 72% | Apparent Inhibition (%) of factor Xa, one-stage coagulation assay; incubation factor Xa 120 sec, PZ 90 sec [1]: 76% | Apparent Inhibition (%) of factor Xa, one-stage coagulation assay; incubation factor Xa 120 sec, PZ 120 sec [1]: 78% | Apparent Inhibition (%) of factor Xa, one-stage coagulation assay; incubation factor Xa 120 sec, PZ 120 sec w/o Ca++ [1]: 0% | Apparent Inhibition (%) of factor Xa, one-stage coagulation assay; incubation factor Xa 120 sec, PZ 120 sec w/o cephalin [1]: 0% | Apparent factor Xa inhibition by inclusion of PZ during preincubation, plasma treated with preimmune IgG (clotting time) [1]: 76% | molar ratio (PZ:factor Xa) from PZ dose/response of ZPI-mediated factor Xa inhibition, amidolytic assay (mol PZ per mol factor Xa) [1]: 1.4
Molecule: human protein Z (PZ), isolated from citrated fresh frozen plasma (from UniProt P22891 41-400)

Maximal factor Xa inhibition, amidolytic assay, reached within <1 minute (with PZ, Ca++ ions, cephalin) [2]: 70% | Maximal factor Xa inhibition, bioassay, reached within <1 minute (with PZ, Ca++ ions, cephalin) [2]: 97% | factor Xa amidolytic activity that persists at relatively high concentrations of ZPI [2]: 20% | stoichiometry (ZPI:factor Xa) from ZPI dose/response, factor Xa amidolytic assay with PZ, CaCl2 and cephalin (mol ZPI per mol factor Xa) [2]: 1.2
B1: human protein Z-dependent protease inhibitor (ZPI), purified from human plasma (protein)
chain: LAPSPQSPETPAPQNQTSRVVQAPKEEEEDEQEASEEKASEEEKAWLMASRQQLAKETSNFGFSLLRKISMRHDGNMVFSPFGMSLAMTGLMLGATGPTETQIKRGLHLQALKPTKPGLLPSLFKGLRETLSRNLELGLTQGSFAFIHKDFDVKETFFNLSKRYFDTECVPMNFRNASQAKRLMNHYINKETRGKIPKLFDEINPETKLILVDYILFKGKWLTPFDPVFTEVDTFHLDKYKTIKVPMMYGAGKFASTFDKNFRCHVLKLPYQGNATMLVVLMEKMGDHLALEDYLTTDLVETWLRNMKTRNMEVFFPKFKLDQKYEMHELLRQMGIRRIFSPFADLSELSATGRNLQVSRVLQRTVIEVDERGTEAVAGILSEITAYSMPPVIKVDRPFHFMIYEETSGMLLFLGRVVNPTLL
modifications: Plasma glycoprotein with five potential N-linked glycosylation sites; the glycans are not carried by the letters.

ZPI activity of conditioned media, two-stage assay of PZ-dependent factor Xa inhibition [2]: 375 mU/mL
B2: rZPI(WT), recombinant wild-type ZPI expressed in CHO cells (protein, UniProt Q9UK55 22-444, looked up)
Protein Z-dependent protease inhibitor: LAPSPQSPETPAPQNQTSRVVQAPKEEEEDEQEASEEKASEEEKAWLMASRQQLAKETSNFGFSLLRKISMRHDGNMVFSPFGMSLAMTGLMLGATGPTETQIKRGLHLQALKPTKPGLLPSLFKGLRETLSRNLELGLTQGSFAFIHKDFDVKETFFNLSKRYFDTECVPMNFRNASQAKRLMNHYINKETRGKIPKLFDEINPETKLILVDYILFKGKWLTPFDPVFTEVDTFHLDKYKTIKVPMMYGAGKFASTFDKNFRCHVLKLPYQGNATMLVVLMEKMGDHLALEDYLTTDLVETWLRNMKTRNMEVFFPKFKLDQKYEMHELLRQMGIRRIFSPFADLSELSATGRNLQVSRVLQRTVIEVDERGTEAVAGILSEITAYSMPPVIKVDRPFHFMIYEETSGMLLFLGRVVNPTLL

ZPI activity of conditioned media, two-stage assay of PZ-dependent factor Xa inhibition [2]: 21 mU/mL
B3: rZPI(Y387R), recombinant ZPI with tyrosine 387 changed to arginine (protein, UniProt Q9UK55 22-444 with Y387R, looked up)
Protein Z-dependent protease inhibitor: LAPSPQSPETPAPQNQTSRVVQAPKEEEEDEQEASEEKASEEEKAWLMASRQQLAKETSNFGFSLLRKISMRHDGNMVFSPFGMSLAMTGLMLGATGPTETQIKRGLHLQALKPTKPGLLPSLFKGLRETLSRNLELGLTQGSFAFIHKDFDVKETFFNLSKRYFDTECVPMNFRNASQAKRLMNHYINKETRGKIPKLFDEINPETKLILVDYILFKGKWLTPFDPVFTEVDTFHLDKYKTIKVPMMYGAGKFASTFDKNFRCHVLKLPYQGNATMLVVLMEKMGDHLALEDYLTTDLVETWLRNMKTRNMEVFFPKFKLDQKYEMHELLRQMGIRRIFSPFADLSELSATGRNLQVSRVLQRTVIEVDERGTEAVAGILSEITARSMPPVIKVDRPFHFMIYEETSGMLLFLGRVVNPTLL

ZPI activity of conditioned media, two-stage assay of PZ-dependent factor Xa inhibition [2]: < 10 mU/mL
B4: rZPI(Y387A), recombinant ZPI with tyrosine 387 changed to alanine (protein, UniProt Q9UK55 22-444 with Y387A, looked up)
Protein Z-dependent protease inhibitor: LAPSPQSPETPAPQNQTSRVVQAPKEEEEDEQEASEEKASEEEKAWLMASRQQLAKETSNFGFSLLRKISMRHDGNMVFSPFGMSLAMTGLMLGATGPTETQIKRGLHLQALKPTKPGLLPSLFKGLRETLSRNLELGLTQGSFAFIHKDFDVKETFFNLSKRYFDTECVPMNFRNASQAKRLMNHYINKETRGKIPKLFDEINPETKLILVDYILFKGKWLTPFDPVFTEVDTFHLDKYKTIKVPMMYGAGKFASTFDKNFRCHVLKLPYQGNATMLVVLMEKMGDHLALEDYLTTDLVETWLRNMKTRNMEVFFPKFKLDQKYEMHELLRQMGIRRIFSPFADLSELSATGRNLQVSRVLQRTVIEVDERGTEAVAGILSEITAASMPPVIKVDRPFHFMIYEETSGMLLFLGRVVNPTLL
